{
  "source": "patent US20110245167A1",
  "target": "Recombinant human Src expressed in Sf9 insect cells (purified recombinant full-length Src from Upstate Biotechnology) (human) (UniProt P12931)",
  "assay": "cell-based or functional assay",
  "data": [
    {"substance": "GST-ND1 (amino acid residue 379-435 of pig kidney Na/K-ATPase α1 subunit) (from UniProt P05023 381-439)", "values": [
      {"measurement": "IC50 of Src inhibition (pY418)", "result": 50, "unit": "nM"}
    ]}
  ]
}
